This data set can be described thus: soluble on expression in E. coli; label from the status in PepcDB or PDB records.
As for “MTMTLHTKASGMALLHQIQGNELEPLNRPQLKIPLERPLGEVYLDSSKPAVYNYPEGAAYEFNAAAAANAQVYGQTGLPYGPGSEAAAFGSNGLGGFPPLNSVSPSPLMLLHPPPQLSPFLQPHGQQVPYYLENEPSGYTVREAGPPAFYRPNSDNRRQGGRERLASTNDKGSMAMESAKETRYCAVCNDYASGYHYGVWSCEGCKAFFKRSIQGHNDYMCPATNQCTIDKNRRKSCQACRLRKCYEVGMMKGGIRKDRRGGRMLKHKRQRDDGEGRGEVGSAGDMRAANLWPSPLMIKRSKKNSLALSLTADQMVSALLDAEPPILYSEYDPTRPFSEASMMGLLTNLADRELVHMINWAKRVPGFVDLTLHDQVHLLECAWLEILMIGLVWRSMEHPVKLLFAPNLLLDRNQGKCVEGMVEIFDMLLATSSRFRMMNLQGEEFVCLKSIILLNSGVYTFLSSTLKSLEEKDHIHRVLDKITDTLIHLMAKAGLTLQQQHQRLAQLLLILSHIRHMSNKGMEHLYSMKCKNVVPLYDLLLEMLDAHRLHAPTSRGGASVEETDQSHLATAGSTSSHSLQKYYITGEAEGFPATV”, the “soluble on expression in E. coli” value is reported as “soluble”. Regarding “MTNDFATVLRQFVEGLDLGIKPRLDYLTRQEDLAIYPMPGGKVNNEYMDGTREISLPFEIAIKTKNQELASTVMWTINSALSNFDLKLPSLNHSYTFISLDVEKPFLNDLSDQGFYIYVLDITAHLEIEGNN”, the “soluble on expression in E. coli” value is “soluble”. “MTNFATTDDVILLWRQLSVDEIKRAEALLETVSDTLRLEASKVGKNLDEMILETPYFATVLKSVTVDIVARTLMTATQGEPMSQESQSALGYTWSGTYLVPGGGLFIKDSELKRLGLKKQRYGGIELYGEIERNNSYFSRQDD”: the “soluble on expression in E. coli” value is given as “not soluble”. The entry for “MTNHPIQGLMTTAMENLKQMIDVNTIIGDPVETPDGSVILTVSKVGFGFAAGGSEFMLDGQQNGHQGAQADGNGHPFGGGSGGGVSITPIAFLVVNSSGVKLLHLDESTHLYEKILDVAPQAFEKIQAMLKKNKKDGAAGQKADDFDI” is “not soluble”; for “MTNLNYQQTHFVMSAPDIRHLPSDCGIEVAFAGRSNAGKSSALNTLTNQKSLARTSKTPGRTQLINLFEVVDGKRLVDLPGYGYAEVPEEMKRKWQRALGEYLEKRQSLQGLVVLMDIRHPLKDLDQQMIQWAVESNIQVLVLLTKADKLASGARKAQLNMVREAVLAFNGDVQVEAFSSLKKQGVDKLRQKLDSWFSELAPVEEIQDGE” it is “not soluble”. With “MTNPTRTKRCGGDVLCGIDNHFQLLLYISENHCQLETKTFFEYFLRIVNKTHDYAILENKKICISHLEHHHHHH”, the “soluble on expression in E. coli” value is listed as “not soluble”. Under “MTNSSNLIDSLEVYVLNNPDEVKPHWVSHFIVPTANELLIKIKNKDGHSGFGLATSYTDIAPIIKPFSNGLQDLIIGEDPFCPEKIYEKIFKLTDTRLSSEKGWSREALIRISAALDIACWDLIGKASNIPLYKLFGGFRNKIPVYVTCAYYRDGKDEKELRDEIKKLVNIGHKSFKVKVGGLSIKEDVKRLEIIRDEIGDQKGLMIDVNRAWDLKTAIEGVKEFEKFKPTWIEEPVRWEDDRRTLKLLSKQTKIPLSGGESEVTIYGCRSMIEEDAIQILQFDCTMFGGFTNGKKLSALCELNHIDVAPHHDCYIHAPLVASTPAGRIVESFDDERDPLQAQLFENPHKMSEGWIHLNKKPGLGLEISDAALKKFGKLVYKNK” stands “soluble”; under “MTPRIEVAAPKEPITINMNVKIEHEIIIKADKDVEELLETRSDLFLEHHHHHH”, “not soluble”; under “MTPVQIAAVVVTYESSSTIDACLSRLRAAEGISEIRVVDNASSDDTLEVVQRHALADARLHFIANPDNPGFATACNQGARDSQAPWLVFINPDLMIARDTLLQLYHRAAGHPAVLLGVEQVDEQGRPDAAVRRRDPDFAAMLRAPRAAANLAVPADPSRALQPVDAISGALMLMQRSLFDRLDGWDGSYRLHAEDLDLCRRARQAGALVAVANDLHVLHVRGVSSRARPFFVEWHKHRGLWRYFRKFEADRRGLLTRLGVWLAIWSHAAAQVPRLLQNKLEHHHHHH”, “not soluble”. Turning to “MTPYNEREVLKLLQEESTQRKGFELIVAQYSEQLYWQIRRMVLSHEDANDLLQNTFIKAWTNIDYFRAEAKLSTWLYRIALNECLTFLNRQRATTTVAIDDPEAAIVQKLESDPYYSGDQVQMLLQKALLTLPEKQRMVFNLKYYQEMKYEEMSEIFGTSVGALKASYHHAVKKIEKFLEEVD”, the “soluble on expression in E. coli” value is on record as “not soluble”. On to “MTQCFKCKQAIGTVVSRDGPTKLYCPDCFLAYCAGAVRENAFQQCRVPSDTPLAVAVSGGPNSMMLLRELGQLRYKTRDQIRRQHLTPQRQAPAQGGKSRSTPTSSPPARSTPLASSLILLPFHLCEDELVLPLPPPLSSSTSSPSSLHAISGRHEAVNRVRSAMEEQFATLRKYVQQQPPRWVYHGEVPCGHKRTKKQQNNPTAAERTGAAHAGGANIATPELSHRGGGSTSAPSPQPRPQRQAGESGETAAATARLFDDSEIRLFRYSDLLSGTYLSELRYALHVSRLSLSDREALYARVRQQTLCRAAQRVCQEHRQRNAAAAAATAVVVGGVAHEEGIREDAAQCSEEQAPFDEHVSLEGTNSKTRSHLLLGSNAVRCATAALEALVTGAGGEGVVHGAGFRGFTHEVVCLRPLRAMLPKETIMYTRLCGIAGSYTPALCTGTATRSVHRTLEQFVLTMMTSYRTMIFNVLNTVQRLEVHPAAMQELLRGIDDASACHTHVHGEGLAEAGSTQSAGKTTRKALPARTAQLNRTDMCLAAPLHVRRDLGGVNVNEADIDSVIAMCCVCGCPASITSCYRGQNANTAVRQLEMLALNTTSAMTPRTSGASPSTVADAASASEASPTTTGCFLCYACQGLADAWPPSVFGRDSTTENDEQPGNDSTTAAGAAARHGAIASTAALFRLCALFY”, for which the “soluble on expression in E. coli” value is given as “not soluble”. The entry for “MTQERPSKLSFSIEETVWLNKGQEVKEILAMSLEPDIRIEEKQDHVYIKGGLRLLGEYVPTEEEATLDPTSAIQEQVSFRSVEEVTIDDEGKGSIQHFFPIDVTIPLSRIQKLDDIYVQVDSFDYDLPERSCIQLTADVSISGMTSEPPVSKQKAQSERPAAIDPLPKPPQLEPIPSTFSFEAKKPFVNEEAGAWNEGVQSRQTFKFQPADNENKLEEDVVVSNEEQAHEGEPIEESKADQAKVEESTASVQKQQEENHQQEVTSVANQDETAEGQVNEGNAIEPAMMRGEVDVEHYDSESVEEEENPTKIQLGVQREEVAIDEESQEDLGEDTDEPKGHREENALYLTKMMTNGEEEFSKLKMCIIQENESLDMIAERYDISTSHLIRFNRLTEERVEEGQILYIPVPSHQSKEGLEHHHHHH” is “soluble”. The entry for “MTQHQTLPQTTEGAYHYQVIRRAIELIDQTDQPISLDEIAANMGMSPAHFQRVFSRWVGVSPKRYQQYLTLGHAKTLLSERFSTLAASHAVGLSGSGRLHDLFLRWEAMSPGEFARKGAGLTIYWGWFESPFGPAIVMGTEKGICGMGFAAEMGAETAFEDLAARWPQASYVEDPMMLRPWVLQAFGAKDGALDTTPLFLIGAPFQIKVWEALLSIPTGHVTTYSEIAQAVGAPRAVRAVGTAVGRNPISWIIPCHRALRKSGGLGGYHWGIPMKRAMLAYEAVELETLEHHHHHH” is “not soluble”. Regarding “MTQRPWSKLQREIYDLLTPTINLQIHCTRYPMRSQNGGSTDLPRYWITLDKNVIWDYPKDFIAGNAGVRNFHGETCWYPYLTDICSISDLLREYIDTPKAELLTKQFTSDKWGLVNILRAADRRIGMRRLDQLRRKTHNIAALKIIARRSE”, the “soluble on expression in E. coli” value is listed as “not soluble”. Under “MTQTTQSPALIASQSSWRCVQAHDREGWLALMADDVVIEDPIGKSVTNPDGSGIKGKEAVGAFFDTHIAANRLTVTCEETFPSSSPDEIAHILVLHSEFDGGFTSEVRGVFTYRVNKAGLITNMRGYWNLDMMTFGNQE” stands “soluble”; under “MTRDLAPALQALSPLLGSWAGRGAGKYPTIRPFEYLEEVVFAHVGKPFLTYTQQTRAVADGKPLHSETGYLRVCRPGCVELVLAHPSGITEIEVGTYSVTGDVIELELSTRADGSIGLAPTAKEVTALDRSYRIDGDELSYSLQMRAVGQPLQDHLAAVLHRQRRSHHHHHH”, “soluble”. As for “MTREHPPEPLDFFIWTVEDVGSWLEEINLGGYRQIFKENGVNGEYLESMSVFTTEQILHFIRRHHMKWGDFITLCKELRRIKVACLKGEQRVRRPWWAPSCLSVVFVKAAKRNRQSRVVSLKLES”, the “soluble on expression in E. coli” value was “not soluble”.

With “MTRLLYYEDAYLKEAKAKVLEVKDNALLLDQTIFYPTGGGQPHDRGWINGVEVLDVYKDEEGNVWHVVKELEKFKPGDEVELKLDWEYRYKLMRIHSALHLLENVLDQILGKGNWEVVGSGMTHEKGRLDVGYPENLNAYKEKIIELFNRYVDEGGEIKIWWEGEKRYTQIRDFDPIPCGGTHVKDIREIGHIKKLKRSSIGRGKQRLEIWLEDLEHHHHHH”, the “soluble on expression in E. coli” value is given as “not soluble”.

For “MTRSGNTRNGKYMGEDKRRYHTITNILQYNLIPDFFTIFAKYCITFKNMTMEKTFAQISELFDQFSKDASLQVEKGNKAAGTRARKASLELEKLLKRFRKESLEASK”, the “soluble on expression in E. coli” value is reported as “not soluble”. The entry for “MTRSRRGALARSSEGGPFPTADPVADRALCGWRVRSVIDLPELPLWTRDDRLPDVTIAFGRVTPVESASPGMNWHVVGEGRFRFTVASVGSYRISRGRVITIDPQAGVVASAVRQYLLGTAFGVLCHQRGLLPLHASCVAINGRAVAIAGASGAGKSSLAAALVRLGYPLLGDDVCVIDASEINAPHVLPAIPRLKLWRDVLDTFGLIVDPAARILEGIDKYQAQALADRPPPPPPQVPLPLGVVYYLDQAESPDDEGFHAIRGAERAAALAGAVYRRKMGLAMGLLPQIFTATMTVGALVPGHRLLRHGDLSGLDALARSVAARQEGRGLEHHHHHH” is “not soluble”. The entry for “MTRTPLTLEQLNALSDDAFTEHFAGVLEHSPHYARRAAAGRPFADVEEVAAAFARAVAADEPGAQVQLIRAHPDLAGKAALAGELTAESASEQTSAGLDRLSPEEYAEFQRLNAAYHERFGLPYVVCVRENTKDTIFEGARRRLTHTQEEEQAAALHEIGRIARLRILDLVQEGRQEKRMDGRLIRIPLEHHHHHH” is “soluble”; for “MTSEKLSAACHCGSVVFTVQLSDGFHTARRCNCSFCRMRGAVAVSAPLSGIKVLKGQDKLTEYRFNTGKAVHFFCSVCGIYTFHQRRSNPDQYGVNVACIENVSPFDFACVEVNDGVTHPSDGGSSGVVGYLRYEPKKSPPVETGGKNILEHHHHHH” it is “soluble”. The entry for “MTSGTSVINDKVLQYETFISEVLRRDLQKVLEQRDAVYEKIAQYLQLKNTIQSIQESGSKELKTDVDLGCNFYVQAHVPDASRIYVAVGYGFFVEFTHAEALKFIEKKTNQLTEYTEVLTKDAAKIKANIRMVLEGLRELQGLKDLPEDRRREVF” is “not soluble”. Regarding “MTSLPPRNRSASLFEGSPFAPSSTTSPPTSSLAKMLKSEPIPCLRCGNVGSPTGSVPMSLHKVSSINRSAGTNPASRGGESSLELEAIAAVHELSFAVQSISVSEMLPRTPDLIFVNVTTLEAQPYCLELTLKGWRITSLRSDCMVGDFTRLELFTKYYDSLYLLMDDISPGYRERFSEKLVQRLKLIEAGEEDQVAPCASLQSPSLSTDSSSKESQYSSTESLPIVTPVSTPAIDPDFKPKFK”, the “soluble on expression in E. coli” value is “not soluble”. Take “MTSLQLSIVHRLPQNYRWSAGFAGSKVEPIPQNGPCGDNSLVALKLLSPDGDNAWSVMYKLSQALSDIEVPCSVLECEGEPCLFVNRQDEFAATCRLKNFGVAIAEPFSNYNPFLEHHHHHH”: the “soluble on expression in E. coli” value is reported as “not soluble”.

The record behind these values is the DeepSol protein solubility set.
